Reference: publication doi:10.1101/483925 (bioRxiv, 2018)

T1: FD, full-length, phosphomimic variant T282E (Arabidopsis thaliana, UniProt Q84JK2 1-285, T282E)
T1 sequence: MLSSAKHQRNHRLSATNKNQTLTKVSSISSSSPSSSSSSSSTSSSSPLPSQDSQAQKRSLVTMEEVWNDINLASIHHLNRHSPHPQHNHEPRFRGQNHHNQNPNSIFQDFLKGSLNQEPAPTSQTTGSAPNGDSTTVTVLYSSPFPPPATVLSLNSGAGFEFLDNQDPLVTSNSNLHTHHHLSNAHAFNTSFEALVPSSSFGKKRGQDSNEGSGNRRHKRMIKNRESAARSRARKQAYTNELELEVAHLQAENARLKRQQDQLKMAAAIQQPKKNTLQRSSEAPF

B1: FD-C_T282E, phosphomimic variant of the C-terminal domain of FD (amino acids 203-285) (domain or fragment)
chain: KKRGQDSNEGSGNRRHKRMIKNRESAARSRARKQAYTNELELEVAHLQAENARLKRQQDQLKMAAAIQQPKKNTLQRSSEAPF
B2: FLOWERING LOCUS T (FT) (natural protein)
chain: not shown
B3: TERMINAL FLOWER 1 (TFL1) (natural protein)
chain: not shown
B4: 14-3-3n (At3g02520; GRF7) (natural protein)
chain: MSSSREENVYLAKLAEQAERYEEMVEFMEKVAKTVDTDELTVEERNLLSVAYKNVIGARRASWRIISSIEQKEESRGNDDHVSIIKDYRGKIETELSKICDGILNLLDSHLVPTASLAESKVFYLKMKGDYHRYLAEFKTGAERKEAAESTLVAYKSAQDIALADLAPTHPIRLGLALNFSVFYYEILNSPDRACSLAKQAFDEAISELDTLGEESYKDSTLIMQLLRDNLTLWNSDINDEAGGDEIKEASKHEPEEGKPAETGQ

How the values were obtained:
[1] = molecular target: B4; assay: native gel or EMSA
[2] = molecular target: T1, FD, full-length, phosphomimic variant …; assay: native gel or EMSA

B1
binding result [1]: binds

B2
binding result [1]: binds

B3
binding result [1]: binds

B4
binding result [2]: binds
